For assay [1], the target named is SARS-CoV-2 spike protein (wild type) on pseudovirus (SARS-CoV-2, UniProt P0DTC2 14-1273). In words: cell-based or functional assay.
In assay [2] the target is recombinant SARS-CoV-2-RBD (Sino Biological) (SARS-CoV-2, UniProt P0DTC2 319-541).

Some results are limits rather than exact numbers.

B1: WCoVA7 (antibody, V domains shown)
VH: EVKLLESGGGLVQPGGSLKLSCAASGFDFSRYWMSWVRQAPGKGLEWIGEINPDSSTINYTPSLKDKFIISRDNAKNTLYLQMSKVRSEDTALYYCARIYYGSPGAMDYWGQGTSVTVSS
VL: SIVMTQTPKFLLVSAGDRVTITCKASQSVSNDVAWYQQKPGQSPKLLIYYASNRYTGVPDRFTGSGYGTDFTFTISTVQAEDLAVYFCQQDYFSPYTFGGGTKLEIK
For B1, in assay [1], the “IC50, pseudovirus neutralisation (CHO-ACE2 cells, luciferase)” value was determined as 2.6 ng/mL.

B2: WCoVA9 (antibody, V domains shown)
VH: EVQLQQSGAELVKPGASVKLSCTASGFNIKDTYMHWVKQRPEQGLEWIGRIDPANGNTKYDPKFQAKATITANTSSNTAYLHLSSLTSEDTAVYYCAPYYDYVGAMDYWGQGTSVTVSS
VL: DIQMTQSPASQSASLGESVTITCLASQTIGTWLAWYQQKPGKSPQLLIYAATSLADGVPSRFSGSGSGTKFSFKISSLQAEDFVSYYCQQLYNTPLTFGGGTKLEIK
With B2, in assay [2], the equilibrium dissociation constant (Kd) was less than 1 nM. Further, the “IC50, pseudovirus neutralisation (CHO-ACE2 cells, luciferase)” value in assay [1] amounted to 4.9 ng/mL.

Usually Kd stands for the constant that tells how readily two partners part at equilibrium.

(Values after CN116744966A (WISTAR INST; WEINER DAVID; MUTHUMANI KARTHIK; PARZACCHI …, dated 2023).)
